This passage reports protein stability index results from the supplement of paper PMC10567573.

B1: LRRC45 (parent)
chain: FQTRQEMTSMSAELKMRAIQAEER
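Also: lentivirally expressed fusions sorted by FACS into six bins by GFP to DsRed ratio, PSI derived from sequencing read proportions per bin multiplied by bin number.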

Variants of B1 are the subject of the data set. As to the kind of experiment: protein stability index of a GFP-peptide fusion (GPS, HEK-293T) (PSI 1-6); higher = more stable. The settings on record: c terminus: a fixed tail appended.
With FQTRQEMTSMSAELKMRAIQAEEC [R24C], the protein stability index worked out at 3.4.

Consider FQTRQEMTSMSAELKMRAIQAEEL [R24L], for which the protein stability index was determined as 4.05. For FQTRQEMTSMSAELKMRAIQAEEH [R24H], the protein stability index amounted to 4.01. As for FQTRQEMTSMSAELKMRAIQAEED [R24D], the protein stability index stood at 4.29. Regarding FQTRQEMTSMSAELKMRAIQAEET [R24T], the protein stability index worked out at 3.96. As for FQTRQEMTSMSAELKMRAIQAEEM [R24M], the protein stability index was 3.54.

For the variant FQTRQEMTSMSAELKMRAIQAEEQ [R24Q], the protein stability index turned out to be 4.5.

Turning to FQTRQEMTSMSAELKMRAIQAEEW [R24W], the protein stability index stood at 2.85. In the case of FQTRQEMTSMSAELKMRAIQAEEN [R24N], the protein stability index was found to be 4.05. On to FQTRQEMTSMSAELKMRAIQAEEP [R24P], for which the protein stability index was determined as 3.88. Take FQTRQEMTSMSAELKMRAIQAEEA [R24A]: the protein stability index amounted to 4.19. In the case of FQTRQEMTSMSAELKMRAIQAEES [R24S], the protein stability index was found to be 4.3. Turning to FQTRQEMTSMSAELKMRAIQAEEE [R24E], the protein stability index amounted to 4.5. Turning to FQTRQEMTSMSAELKMRAIQAEEV [R24V], the protein stability index is 3.67. Regarding FQTRQEMTSMSAELKMRAIQAEEF [R24F], the protein stability index was determined as 3.19. As to FQTRQEMTSMSAELKMRAIQAEEK [R24K], the protein stability index worked out at 4.26. Turning to FQTRQEMTSMSAELKMRAIQAEEG [R24G], the protein stability index is 4.18.

Turning to FQTRQEMTSMSAELKMRAIQAEEI [R24I], the protein stability index worked out at 3.94.

Turning to FQTRQEMTSMSAELKMRAIQAEEY [R24Y], the protein stability index was 3.71. The figure for FQTRQEMTSMSAELKMRAIQAESR [E23S] is 3.52; for FQTRQEMTSMSAELKMRAIQAEIR [E23I] it is 3.7; for FQTRQEMTSMSAELKMRAIQAEDR [E23D] it is 3.33. With FQTRQEMTSMSAELKMRAIQAEFR [E23F], the protein stability index was 2.99.

In the case of FQTRQEMTSMSAELKMRAIQAEVR [E23V], the protein stability index came out at 3.22. Take FQTRQEMTSMSAELKMRAIQAEQR [E23Q]: the protein stability index came to 4.11. On to FQTRQEMTSMSAELKMRAIQAEMR [E23M], for which the protein stability index turned out to be 3.16. The figure for FQTRQEMTSMSAELKMRAIQAEAR [E23A] is 3.16; for FQTRQEMTSMSAELKMRAIQAEGR [E23G] it is 3.56. Turning to FQTRQEMTSMSAELKMRAIQAENR [E23N], the protein stability index is 3.32.

As to FQTRQEMTSMSAELKMRAIQAERR [E23R], the protein stability index came to 3.54. Regarding FQTRQEMTSMSAELKMRAIQAETR [E23T], the protein stability index is 3.16. As to FQTRQEMTSMSAELKMRAIQAECR [E23C], the protein stability index amounted to 2.61. On to FQTRQEMTSMSAELKMRAIQAEHR [E23H], for which the protein stability index is 3.39. With FQTRQEMTSMSAELKMRAIQAEWR [E23W], the protein stability index stood at 2.26. The figure for FQTRQEMTSMSAELKMRAIQAEKR [E23K] is 3.53; for FQTRQEMTSMSAELKMRAIQAEPR [E23P] it is 3.81. Consider FQTRQEMTSMSAELKMRAIQAEYR [E23Y], for which the protein stability index was 2.88.

On to FQTRQEMTSMSAELKMRAIQAELR [E23L], for which the protein stability index turned out to be 3.1.

For the variant FQTRQEMTSMSAELKMRAIQAYER [E22Y], the protein stability index is 3.9.

Turning to FQTRQEMTSMSAELKMRAIQAAER [E22A], the protein stability index was found to be 3.56. As to FQTRQEMTSMSAELKMRAIQALER [E22L], the protein stability index is 2.59. For FQTRQEMTSMSAELKMRAIQACER [E22C], the protein stability index turned out to be 3.18.

For FQTRQEMTSMSAELKMRAIQARER [E22R], the protein stability index came out at 3.18. FQTRQEMTSMSAELKMRAIQAFER [E22F]: the protein stability index stood at 2.56. For the variant FQTRQEMTSMSAELKMRAIQADER [E22D], the protein stability index is 3.64. With FQTRQEMTSMSAELKMRAIQAWER [E22W] the figure was 2.56; with FQTRQEMTSMSAELKMRAIQAPER [E22P], 2.74; with FQTRQEMTSMSAELKMRAIQAIER [E22I], 3.1.

For FQTRQEMTSMSAELKMRAIQANER [E22N], the protein stability index turned out to be 3.44. With FQTRQEMTSMSAELKMRAIQATER [E22T], the protein stability index came to 3.23. Consider FQTRQEMTSMSAELKMRAIQAMER [E22M], for which the protein stability index turned out to be 3.64. As to FQTRQEMTSMSAELKMRAIQAKER [E22K], the protein stability index stood at 3.57. With FQTRQEMTSMSAELKMRAIQAQER [E22Q] the figure was 3.37. The figure for FQTRQEMTSMSAELKMRAIQAVER [E22V] is 3.18; for FQTRQEMTSMSAELKMRAIQAGER [E22G] it is 2.53; for FQTRQEMTSMSAELKMRAIQASER [E22S] it is 3.28. On to FQTRQEMTSMSAELKMRAIQAHER [E22H], for which the protein stability index amounted to 2.92. With FQTRQEMTSMSAELKMRAIQWEER [A21W] the figure was 3.43; with FQTRQEMTSMSAELKMRAIQYEER [A21Y], 3.76; with FQTRQEMTSMSAELKMRAIQTEER [A21T], 3.83. Take FQTRQEMTSMSAELKMRAIQSEER [A21S]: the protein stability index was determined as 3.81. With FQTRQEMTSMSAELKMRAIQVEER [A21V], the protein stability index was determined as 3.59.
